Measurements reported in publication PMC9523724.

Molecular target: commercial orange peel PME (pectin methylesterase, Sigma p5400) (orange (peel))

In the case of “recombinant MePMEI1 protein (pectin methylesterase inhibitor 1 of Manihot esculenta) (natural protein)”, the relative activity of MePMEI1 (loss of PME activity with MePMEI1 against the initial PME activity) at pH 4.5, 5.5, 6.5, 7.5 and 8.5; highest at pH 5.5, falling with rising pH was 31%.
